Experimental data reported in paper PMC3549490.
Blank lines part the entries; values can stand above or below the binder they belong to.

Molecular target: UNC-45 (C. elegans), full-length recombinant protein (C. elegans)
Experiment: ITC

Kd: 14 µM
B1: Hsp90 (DAF-21) C-terminal peptide … (peptide)
peptide: EDASRMEEVD

Kd: 120 µM
B2: Hsp70 (HSP-1) C-terminal peptide … (peptide)
peptide: AGGPTIEEVD
